Results published in the supplement of paper PMC11875167.

Assay: observed amide hydrogen exchange rate constant kobs (stretched exponential fit, FD-normalized) (s^-1); higher = faster H/D exchange (less protection)
Details: pH 3 (pH read); temperature: 20 °C; D2O: 88%
Summary of the method: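 Uptake curves were fitted to a stretched single exponential with β = 0.8, and kobs, the observed exchange rate constant, is the fitted rate. The data came from Jurkat tryptic peptides (LysC/trypsin, carbamidomethylated cysteines) labeled in 88% D2O at pHread 3, 20 °C, then quenched with 0.23% formic acid at 13 times from 18 to 93,600 s in processing triplicates. MS1 uptake from a Q-Exactive HF, analyzed in HDExaminer with no back-exchange correction, was normalized to full-deuteration controls (24 h, 37 °C).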

| Substance | observed amide hydrogen exchange rate constant kobs |
| --- | --- |
| PFEVPFLK | 0.000569 |
| PFLNGLTGKPVMVK | 0.000606 |
| PFLWLAR | 0.000665 |
| PLRLPLQDVYK | 0.000685 |
| PMPNPNPNHPSSSGSFSDADLADGVSGGEGK | 0.00261 |
| PVGSLAGIGEVLGK | 0.00115 |
| PVHHGVNQLK | 0.00235 |
| PYVEEGLHPQIIIR | 0.000843 |
| QDFVQHFSQIVR | 0.00117 |
| QEMQEVQSSR | 0.00166 |
| QEYDESGPSIVHRK | 0.00258 |
| QFLFRPWDVTK | 0.000828 |
| QHYIDLK | 0.00137 |
| QIPQATASMK | 0.00103 |
| QITVNDLPVGR | 0.000932 |
| QIVWNGPVGVFEWEAFAR | 0.00105 |
| QLFHPEQLITGK | 0.00131 |
| QQISLATQMVR | 0.00147 |
| QSKPVTTPEEIAQVATISANGDK | 0.000917 |
| QSLGELIGTLNAAK | 0.000915 |

| Substance | observed amide hydrogen exchange rate constant kobs |
| --- | --- |
| QTVAVGVIK | 0.000426 |
| QVVESAYEVIK | 0.000781 |
| RAAEDDEDDDVDTKK | 0.0039 |
| RALEQQVEEMK | 0.000806 |
| RAPFDLFENK | 0.00167 |
| REEEEFNTGPLSVLTQSVK | 0.00112 |
| RFDDAVVQSDMK | 0.00151 |
| RGILTLK | 0.000691 |
| RGLEVNK | 0.00164 |
| RHLTGEFEK | 0.00392 |
| RLNINAAK | 0.000596 |
| RNTTIPTK | 0.00112 |
| RSELIAK | 0.000984 |
| RVHPVSTMIK | 0.00129 |
| RVIISAPSADAPMFVMGVNHEK | 0.000994 |
| RVLIAAHGNSLR | 0.00149 |
| SADTLWDIQK | 0.000935 |
| SADTLWGIQK | 0.000987 |
| SAEFLLHMLK | 0.00118 |
| SDALETLGFLNHYQMK | 0.00133 |

| Substance | observed amide hydrogen exchange rate constant kobs |
| --- | --- |
| SESPKEPEQLRK | 0.00165 |
| SFFTDDDK | 0.0032 |
| SFYPEEVSSMVLTK | 0.000867 |
| SGYLAGDK | 0.00168 |
| SIEVIENR | 0.000822 |
| SINPDEAVAYGAAVQAAILSGDK | 0.000731 |
| SIQFVDWCPTGFK | 0.00182 |
| SIYGEK | 0.00146 |
| SIYYITGESK | 0.00108 |
| SLADELALVDVLEDK | 0.00105 |
| SLAGSSGPGASSGTSGDHGELVVR | 0.00237 |
| SLEGDLEDLK | 0.00103 |
| SLTNDWEDHLAVK | 0.00185 |
| SNEILTAIIQGMR | 0.000423 |
| SNNVEMDWVLK | 0.000871 |
| SPYQEFTDHLVK | 0.00116 |
| SQIHDIVLVGGSTR | 0.00136 |
| SQLDIIIHSLK | 0.000886 |
| SSFYVNGLTLGGQK | 0.00091 |
